Results on two molecules are retold here after paper PMC5566100.

The data set has as its target IGFIIR extracellular domain (domains 10-14; M6PR) (human, UniProt P11717 1510-2108). The experiment in a line: SPR. (In general: Surface plasmon resonance follows binding to a sensor surface in real time, without labels.)

Chain of IGFIIR extracellular domain (domains 10-14; M6PR) (P11717 1510-2108): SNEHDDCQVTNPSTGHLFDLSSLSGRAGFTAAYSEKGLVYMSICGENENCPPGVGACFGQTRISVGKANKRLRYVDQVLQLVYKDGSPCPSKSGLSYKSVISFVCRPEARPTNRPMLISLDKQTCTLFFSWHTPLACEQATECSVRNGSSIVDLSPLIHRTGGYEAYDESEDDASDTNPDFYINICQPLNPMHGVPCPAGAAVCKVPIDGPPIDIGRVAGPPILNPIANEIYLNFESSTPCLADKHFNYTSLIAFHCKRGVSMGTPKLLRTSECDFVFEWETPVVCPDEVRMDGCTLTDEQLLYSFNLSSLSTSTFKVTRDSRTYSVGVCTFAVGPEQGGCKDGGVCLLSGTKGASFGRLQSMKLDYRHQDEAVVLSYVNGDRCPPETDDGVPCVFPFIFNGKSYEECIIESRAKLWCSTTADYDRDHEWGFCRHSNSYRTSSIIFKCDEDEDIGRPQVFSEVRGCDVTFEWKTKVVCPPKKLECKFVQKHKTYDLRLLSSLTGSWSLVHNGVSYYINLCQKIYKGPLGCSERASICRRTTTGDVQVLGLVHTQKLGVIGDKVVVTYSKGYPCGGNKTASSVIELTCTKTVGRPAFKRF

As a reminder, the Kd is the free concentration of one partner at which half of the binding sites on the other are occupied at equilibrium, for simple one-to-one binding. Higher therefore signals a looser complex. In turn, GGGCGCGTAGATGACGAGCAGTCCTAACATCGTTTAGGAC (structured_DNA) [DNA aptamer-20] yielded a Kd of 35.5 nM. GGGCGCGUAGAUGACGAGCAGUCCUAACAUCGUUUAGGAC (structured_RNA) [RNA aptamer-20]: the affinity, expressed as Kd, was 20 nM.
